We go through four molecules from publication PMC7878476, “Regulatory inter-domain interactions influence Hsp70 recruitment to the DnaJB8 chaperone” (Nature Communications, 2021).

First the molecules themselves.
B3: FITC-labeled JD_(1–82) of DnaJB8 (domain or fragment, human, UniProt Q8NHS0 1-82, looked up)
chain: MANYYEVLGVQASASPEDIKKAYRKLALRWHPDKNPDNKEEAEKKFKLVSEAYEVLSDSKKRSLYDRAGCDSWRAGGGASTP
modifications: FITC (labeled with 10× FITC-maleimide; site not stated)
notes: DnaJB8, human, J-domain, residues 1-82; Same construct as m4, with the fluorescein label; also called JD_(1–82)-FITC; JD_(1–82)–FITC; source: E. coli BL-21 (DE3), purified (TALON, Superdex 200), labeled with FITC-maleimide, excess dye removed by Superdex 75

Data set [1] concerns the molecule itself. The data set can be described thus: cross-linking; DnaJB8–Clover held on anti-GFP nanobody/Ni-NTA beads, 1× PBS, 57 mM ADH + 36 mM DMTMM, 1 min at 37 °C; eluate analysed by MS and western blot. Background: Immunoblotting shows a protein as a band on a membrane.
Data set [2] deals with the molecule itself. The data set can be described thus: dynamic light scattering; 1.2 mg/mL in 1× PBS, 1 mM DTT, pH 7.4, room temperature, time course over about 20 h; 150 mM or 285 mM NaCl for full-length DnaJB8.
The target of data set [3] is T1, human Hsp70 (HspA1A) (human, UniProt P0DMV8 1-641).
T1 construct: HspA1A (Hsp70), human; HspA1A gene cloned into pMCSG7; no tag cleavage is described; source: E. coli BL-21 (DE3), purified (TALON, HiTrap Q anion exchange, Superdex 200)
Briefly: fluorescence polarisation; 0.2 μM FITC-JD_(1–82) with a titration of Hsp70 or CTD_(170–232) (150–0 μM) in 1× PBS, 1 mM TCEP, pH 7.4; one site-specific binding fit. The following applies: both partners purified. (In general: In fluorescence polarisation assays a small probe gives low polarisation when free and higher when bound to something large.)

Data set [4] addresses B3. The description is as above. The following applies: both partners purified.

Values joined by “and” are separate entries in the source; they are usually repeats but may differ in a detail not shown here. Equal values may be shown once.

T1 sequence (P0DMV8 whole entry): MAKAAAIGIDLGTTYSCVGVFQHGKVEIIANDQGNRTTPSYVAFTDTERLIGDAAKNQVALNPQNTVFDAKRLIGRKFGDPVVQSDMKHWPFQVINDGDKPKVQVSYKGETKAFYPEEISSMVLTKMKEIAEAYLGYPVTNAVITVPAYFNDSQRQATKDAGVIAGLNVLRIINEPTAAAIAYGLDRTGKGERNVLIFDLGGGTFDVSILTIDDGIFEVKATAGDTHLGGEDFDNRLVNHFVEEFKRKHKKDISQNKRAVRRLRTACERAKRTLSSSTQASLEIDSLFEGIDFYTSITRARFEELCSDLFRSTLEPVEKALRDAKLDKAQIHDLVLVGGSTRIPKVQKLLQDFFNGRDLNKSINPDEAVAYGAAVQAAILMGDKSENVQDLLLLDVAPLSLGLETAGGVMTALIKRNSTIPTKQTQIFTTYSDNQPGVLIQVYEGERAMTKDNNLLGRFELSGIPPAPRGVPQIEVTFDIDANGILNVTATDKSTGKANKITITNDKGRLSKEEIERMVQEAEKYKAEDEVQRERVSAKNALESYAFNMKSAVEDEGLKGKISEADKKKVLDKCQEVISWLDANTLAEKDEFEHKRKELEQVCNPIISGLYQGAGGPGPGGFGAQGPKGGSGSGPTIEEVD

B1: DnaJB8–mClover3 fusion protein (natural protein, human, UniProt Q8NHS0 1-232, looked up)
chain: MANYYEVLGVQASASPEDIKKAYRKLALRWHPDKNPDNKEEAEKKFKLVSEAYEVLSDSKKRSLYDRAGCDSWRAGGGASTPYHSPFDTGYTFRNPEDIFREFFGGLDPFSFEFWDSPFNSDRGGRGHGLRGAFSAGFGEFPAFMEAFSSFNMLGCSGGSHTTFSSTSFGGSSSGSSGFKSVMSSTEMINGHKVTTKRIVENGQERVEVEEDGQLKSVTVNGKEQLKWMDSK
notes: also called DnaJB8–Clover; source: HEK293T polyclonal lentiviral cell line, isolated from lysate with His-tagged anti-GFP nanobody on Ni-NTA resin
Consider B1, for which the binding result in data set [1] is “binds”.

B2: recombinant full-length DnaJB8 (wild type) (natural protein, human, UniProt Q8NHS0 1-232, looked up)
chain: MANYYEVLGVQASASPEDIKKAYRKLALRWHPDKNPDNKEEAEKKFKLVSEAYEVLSDSKKRSLYDRAGCDSWRAGGGASTPYHSPFDTGYTFRNPEDIFREFFGGLDPFSFEFWDSPFNSDRGGRGHGLRGAFSAGFGEFPAFMEAFSSFNMLGCSGGSHTTFSSTSFGGSSSGSSGFKSVMSSTEMINGHKVTTKRIVENGQERVEVEEDGQLKSVTVNGKEQLKWMDSK
notes: pET-29b; no tag removal is described; also called WT DnaJB8; source: E. coli BL-21 (DE3), purified from the insoluble fraction (8 M guanidinium HCl, Ni-NTA), dialysed, lyophilised
Regarding B2, the binding result in data set [2] is “binds”.
What is called Kd is the free concentration of one partner at which half of the binding sites on the other are occupied at equilibrium, for simple one-to-one binding. Low readings indicate tighter binding, high ones weaker binding. Take B3: the dissociation constant (Kd) in data set [3] turned out to be 0.413 ± 0.057 µM.

B4: isolated C-terminal domain of DnaJB8, CTD_(170–232) (domain or fragment, human, UniProt Q8NHS0 170-232, looked up)
chain: GGSSSGSSGFKSVMSSTEMINGHKVTTKRIVENGQERVEVEEDGQLKSVTVNGKEQLKWMDSK
notes: source: E. coli BL-21 (DE3), purified (TALON, Superdex 200)
In the case of B4, the dissociation constant (Kd) in data set [4] is 4.4 µM and 6.21 µM and 4.43 µM.
